Experimental data as given in patent publication US8133978 (GlaxoSmithKline, dated 2012).

T1: Human interleukin-18 (recombinant human IL-18) (human, UniProt Q14116 37-193)
T1 construct: also called hIL-18
T1 sequence: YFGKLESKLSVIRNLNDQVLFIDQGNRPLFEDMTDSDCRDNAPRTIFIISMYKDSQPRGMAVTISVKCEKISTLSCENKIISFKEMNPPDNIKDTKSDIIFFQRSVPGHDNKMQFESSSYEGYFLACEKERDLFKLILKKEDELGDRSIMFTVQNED


Tests used:
[1] = molecular target: T1, Human interleukin-18 (recombinant human …); assay: ELISA, human IL-18 captured by 16D10, antibody titrated
Description: ELISA with all nine humanised variants was carried out at least 6 times using various batches of purified antibody preparation. FIGS. 4A-4C show representative data from one experiment which generated the EC50 value ranking illustrated in Table 7. Human IL-18 was immobilized on Nunc Maxisorp 96-well plates using 2.5 µg/ml of 16D10 (non-neutralising mouse monoclonal antibody) to capture 5 ng/ml of recombinant human IL-18. Anti-IL-18 humanised antibodies were added at various dilutions. Bound humanised antibodies were detected using anti-human IgG Fc specific peroxidase conjugate (Sigma A0170).

[2] = molecular target: T1, Human interleukin-18 (recombinant human …); assay: SPR, Biacore 3000, antibody captured on Protein A, 25 C
Description: Biacore™ kinetic analysis of the humanised 2C10 antibodies was carried out on a Biacore™ 3000 instrument using Protein A capture of the antibodies in HBS-EP buffer (Biacore™). Briefly, Protein A was immobilised on a CM5 chip by primary amine coupling, using manufacturers recommended protocol, to densities around 2000-4000 resonance units (RU's). Humanised antibody was then passed over the Protein A surface and captured to levels of around 200-500 RU's, after a period of stabilisation, IL-18 (human or Rhesus) was passed over the captured antibody surface at defined concentrations and binding sensorgrams were obtained. […] All curves were double referenced against a buffer injection instead of IL-18 and the data was fitted to the 1:1 binding model using the global fit parameters in BiaEval 4.1. Off-rate ranking experiments were set up using the same Protein A capture method, however, only a single concentration of IL-18 was used (10 nM). Whilst the data was fitted using the same binding model as the kinetic analysis, since only one concentration of analyte was used on the off-rate is reported, this value is useful for ranking rather than giving an exact kinetic measurement and was used as a way of selecting which antibodies would be further investigated. […]

[3] = molecular target: T1, Human interleukin-18 (recombinant human …); assay: cell-based or functional assay
[4] = molecular target: T1, Human interleukin-18 (recombinant human …); assay: ELISA, antibody on plate, human IL-18 captured, detected by 16D10; room temperature, in serum
Description: (§1) ELISA was carried out with the three Humanised H1 variants; H1L1, H1L2 and H1L3 to assess binding to human IL-18 at room temperature and at 37° C. in both human serum and in block solution (PBS 0.05% TWEEN with 1% BSA (w/v)). The Humanised antibody variants were immobilised on Nunc Maxisorp 96-well plates at 2.5 µg/ml. Capture of 5 ng/ml of recombinant human IL-18 was carried out either at room temperature or 37° C. in human serum or block solution. Anti-IL-18 mouse monoclonal antibody 16D10 was added. The bound mouse antibody was detected using anti-mouse kappa peroxidase conjugate (Serotec MCA 1291P). Representative EC50 values generated from the study data are illustrated in Table 9.

Rhesus IL-18 [5] = molecular target: T2, Rhesus IL-18 (rhesus (rhesus/cynomolgus)); assay: SPR, Biacore 3000, antibody captured on Protein A, 25 C
T2 construct: also called Rhesus/Cynomolgus IL-18; rhesus/cynomolgus IL-18
Description: (§2) Biacore™ kinetic analysis of the humanised 2C10 antibodies was carried out on a Biacore™ 3000 instrument using Protein A capture of the antibodies in HBS-EP buffer (Biacore™). Briefly, Protein A was immobilised on a CM5 chip by primary amine coupling, using manufacturers recommended protocol, to densities around 2000-4000 resonance units (RU's). Humanised antibody was then passed over the Protein A surface and captured to levels of around 200-500 RU's, after a period of stabilisation, IL-18 (human or Rhesus) was passed over the captured antibody surface at defined concentrations and binding sensorgrams were obtained. […] All curves were double referenced against a buffer injection instead of IL-18 and the data was fitted to the 1:1 binding model using the global fit parameters in BiaEval 4.1. Off-rate ranking experiments were set up using the same Protein A capture method, however, only a single concentration of IL-18 was used (10 nM). Whilst the data was fitted using the same binding model as the kinetic analysis, since only one concentration of analyte was used on the off-rate is reported, this value is useful for ranking rather than giving an exact kinetic measurement and was used as a way of selecting which antibodies would be further investigated.
(§3) Based upon these observations selected antibodies were investigated in greater detail for binding to human and Rhesus IL-18 at 37° C. The data shown in Table 4b for human IL-18 is the mean (and standard deviation) of six separate determinations.

[6] = molecular target: T1, Human interleukin-18 (recombinant human …); assay: SPR, Biacore T100, Protein A capture, 25 C, mean n = 3
Description: (§4) The methodology was basically the same as for the method used in Example 4a above; Protein A was immobilised on a CM5 chip at densities of between 2000-6000 RU's by primary amine coupling. Runs were carried out in HBS-EP (Biacore™). The anti-IL-18 antibodies were captured to densities of between 100-500 RUs, human IL-18 was passed over this captured surface at concentrations between 16-0.0625 nM, with 0 nM concentration (i.e., a buffer only injection of captured antibody) used for double referencing. Regeneration after each injection of IL-18 was by mild acidic elution using two injections of 10 mM glycine, pH1.5. […] The binding curves obtained were analysed using the analysis software inherent to the T100 machine using the 1:1 model of binding. Runs were carried out at the temperatures indicated.
These experiments were carried out as described above. Table 6 details the kinetic parameters obtained. […] H1L2 has a better on-rate (ka) than H1L1.

[7] = molecular target: T1, Human interleukin-18 (recombinant human …); assay: ELISA, antibody on plate, human IL-18 captured, detected by 16D10; 37 C, in serum
Description: as §1

[8] = molecular target: T1, Human interleukin-18 (recombinant human …); assay: ELISA, antibody on plate, human IL-18 captured, detected by 16D10; 37 C, blocking buffer
Description: as §1

Rhesus IL-18 [9] = molecular target: T2, Rhesus IL-18; assay: SPR, Biacore 3000, antibody captured on Protein A, 37 C
Description: as §2, §3

[10] = molecular target: T1, Human interleukin-18 (recombinant human …); assay: as above
Description: as §2, §3

[11] = molecular target: T1, Human interleukin-18 (recombinant human …); assay: ELISA, antibody on plate, human IL-18 captured, detected by 16D10; room temperature, blocking buffer
Description: as §1

[12] = molecular target: T1, Human interleukin-18 (recombinant human …); assay: SPR, Biacore T100, Protein A capture, 37 C, mean n = 3
Description: as §4

Rhesus IL-18 [13] = molecular target: T2, Rhesus IL-18; assay: Rhesus IL-18 binding ELISA, antibody titrated, OD 490 nm
[14] = molecular target: T1, Human interleukin-18 (recombinant human …); assay: SPR, Biacore T100, Protein A capture, 37 C, mean n = 2
Description: as §4

Rhesus IL-18 [15] = molecular target: T2, Rhesus IL-18; assay: Rhesus IL18 binding ELISA, antibody titrated, OD 490 nm

Row | Binder | EC50 [1] [ng/mL] | Kd [2] [nM] | % change vs 2C10 (IC50, KG-1 bioassay) [3] [%] | EC50 [4] [ng/mL] | Kd (Rhesus IL-18 [5]) [nM] | Kd [6] [nM] | EC50 [7] [ng/mL] | EC50 [8] [ng/mL] | Kd (Rhesus IL-18 [9]) [nM] | Kd [10] [nM] | EC50 [11] [ng/mL] | Kd [12] [nM] | EC50 (read off the curve) (Rhesus IL-18 [13]) [ng/mL] | Kd [14] [nM] | EC50 (read off the curve) (Rhesus IL-18 [15]) [ng/mL]
1 | H1L3 humanised anti-IL-18 antibody (antibody, human IgG1, kappa, V domains shown, Human IgG1 / kappa) VH: QVQLVQSGAEVKKPGASVKVSCKVSGEISTGYYFHWVRQAPGKGLEWMGRIDPEDDSTKYAERFKDRVTMTEDTSTDTAYMELSSLRSEDTAVYYCTTWRIYRDSSGRPFYVMDAWGQGTLVTVSS VL: DIQMTQSPSSVSASVGDRVTITCLASEDIYTYLTWYQQKPGKAPQLLIYGANKLQDGVPSRFSGSGSGTDYTLTISSLQPEDEGDYYCLQGSKFPLTFGQGTKLEIKR | 11 | 0.0225 | 71.6 | 8.99 | 0.109 | 0.022 | 11.4 | 3.33 | 0.17 | 0.188 | 3.79 | 0.0648 | – | – | –
2 | 2C10 rat-human chimera (chimaeric antibody 2C10c) (antibody, V domains shown, Rat 2C10 V regions joined to human IgG1 and kappa C regions; also called Chimera 2C10; 2C10 Chimera) VH: EVQLQQSGAELVRPGTSVKLSCKVSGEISTGYYFHFVRRRPGQGLEWIGRIDPEDDSTKYAERFKDRATLTAQTSSNTAYLNLSSLTSEDTATYFCTTWRIYRDSSGRPFYVMDAWGQGTLVTVSS VL: DIQMTQSPASLSASLGETVSIECLASEDIYTYLTWYQQKPGKSPQLLIYGANKLQDGVPSRFSGSGSGTQYSLKISGIQPEDEGDYFCLQGSKFPLTFGSGTKLEIKR | 7 | 0.0139 | – | 7.3 | 0.0547 | 0.0091 | 10.1 | 3.79 | – | – | 3.81 | – | ~10 | 0.0229 | ~20
